Experiments:
UBC9 = UBC9 (UniProt P63279); experiment: co-IP, Strep-ALKBH5 with Flag-UBC9; conditions: reference: wild type
SENP1 = SENP1 (UniProt Q9P0U3); experiment: co-IP; conditions: reference: wild type

| binding against the reference (UBC9; sites S325) | binding against the reference (SENP1; sites S325) | binding against the reference (UBC9; sites S87) | binding against the reference (SENP1; sites S87) | Substance |
| --- | --- | --- | --- | --- |
| weaker | stronger |  |  | ALKBH5 (from UniProt Q6P6C2) S325A |
|  |  | weaker | stronger | ALKBH5 (from UniProt Q6P6C2) S87A |

Source: article PMC8191756
